Experimental data published in patent US20240317865A1 (MOMENTA PHARMACEUTICALS, published 2024).

Experiments:
[1] = molecular target: T1, α11β1 on human myofibroblasts (MF) (human, UniProt Q9UKX5 23-1188; P05556 21-798); assay: FACS (PE) on human myofibroblasts, histogram
T1 construct: whole, on cells; Human pulmonary fibroblasts treated with TGFβ

[2] = molecular target: T2, recombinant human integrin alpha 11 beta 1 (α11β1) (human, UniProt Q9UKX5 23-1141; P05556 21-728); assay: ELISA on plate-coated recombinant human α11β1, OD 450nm
T2 construct: Coated in ELISA; also called human α11β1; soluble human α11β1
T2 sequence (Q9UKX5 23-1141 limits assumed, chain 1 of 2): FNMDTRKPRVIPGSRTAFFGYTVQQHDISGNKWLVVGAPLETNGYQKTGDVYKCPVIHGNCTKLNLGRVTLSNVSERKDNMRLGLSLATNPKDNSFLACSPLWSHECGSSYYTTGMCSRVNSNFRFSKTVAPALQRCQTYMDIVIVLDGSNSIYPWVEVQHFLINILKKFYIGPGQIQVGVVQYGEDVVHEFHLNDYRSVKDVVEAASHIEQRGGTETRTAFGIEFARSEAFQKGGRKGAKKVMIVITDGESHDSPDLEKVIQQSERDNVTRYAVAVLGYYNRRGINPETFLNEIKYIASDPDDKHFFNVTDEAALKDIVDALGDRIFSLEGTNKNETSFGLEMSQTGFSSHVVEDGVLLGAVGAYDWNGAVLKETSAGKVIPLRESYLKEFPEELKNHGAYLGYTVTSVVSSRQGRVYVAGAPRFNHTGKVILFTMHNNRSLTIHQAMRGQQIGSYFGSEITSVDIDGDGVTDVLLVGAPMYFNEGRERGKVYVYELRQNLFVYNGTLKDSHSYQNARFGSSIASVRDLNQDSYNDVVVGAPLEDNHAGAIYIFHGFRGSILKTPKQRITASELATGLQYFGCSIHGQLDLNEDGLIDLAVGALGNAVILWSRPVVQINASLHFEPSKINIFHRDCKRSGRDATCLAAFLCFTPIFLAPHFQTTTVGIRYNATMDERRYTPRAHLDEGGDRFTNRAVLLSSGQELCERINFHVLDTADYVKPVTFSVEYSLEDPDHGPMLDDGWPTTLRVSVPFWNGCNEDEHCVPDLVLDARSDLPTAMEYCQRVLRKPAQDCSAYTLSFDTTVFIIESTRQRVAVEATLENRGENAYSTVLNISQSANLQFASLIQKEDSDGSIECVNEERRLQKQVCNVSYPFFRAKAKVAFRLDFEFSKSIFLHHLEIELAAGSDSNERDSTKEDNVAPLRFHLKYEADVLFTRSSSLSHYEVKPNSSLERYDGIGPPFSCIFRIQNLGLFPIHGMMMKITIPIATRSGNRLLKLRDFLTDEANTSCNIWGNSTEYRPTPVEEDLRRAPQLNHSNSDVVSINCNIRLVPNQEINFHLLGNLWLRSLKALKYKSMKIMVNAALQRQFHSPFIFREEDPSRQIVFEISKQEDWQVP
T2 sequence (P05556 21-728 limits assumed, chain 2 of 2): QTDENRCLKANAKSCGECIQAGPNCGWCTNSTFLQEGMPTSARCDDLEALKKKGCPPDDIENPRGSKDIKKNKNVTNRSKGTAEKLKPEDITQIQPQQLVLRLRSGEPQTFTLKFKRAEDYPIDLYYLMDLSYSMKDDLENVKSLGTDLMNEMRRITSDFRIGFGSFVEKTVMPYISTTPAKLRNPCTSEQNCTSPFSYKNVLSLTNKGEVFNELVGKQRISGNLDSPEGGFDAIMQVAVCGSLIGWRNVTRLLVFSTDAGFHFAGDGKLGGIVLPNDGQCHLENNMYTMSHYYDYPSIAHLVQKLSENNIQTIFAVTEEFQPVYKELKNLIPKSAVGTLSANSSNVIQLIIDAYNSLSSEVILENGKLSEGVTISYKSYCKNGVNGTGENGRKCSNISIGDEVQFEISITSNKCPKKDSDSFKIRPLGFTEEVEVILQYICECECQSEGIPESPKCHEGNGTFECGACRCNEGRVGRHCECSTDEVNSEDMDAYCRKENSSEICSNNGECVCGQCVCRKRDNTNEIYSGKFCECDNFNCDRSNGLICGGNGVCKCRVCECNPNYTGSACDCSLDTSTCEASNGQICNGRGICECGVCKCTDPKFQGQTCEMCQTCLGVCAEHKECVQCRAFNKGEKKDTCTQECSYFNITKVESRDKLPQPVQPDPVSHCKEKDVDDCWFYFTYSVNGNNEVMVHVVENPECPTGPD
Protocol: 0.25 μg/mL of target antigen (recombinant human or mouse α11β1) was plated in a 96-well plate over night at 4° C. Plates were washed (PBS with 0.1% Tween-20), blocked (PBS with 2% BSA and 0.05% Tween-20) for 1 hour at room temperature and incubated with a range of antibody concentrations for 1 hour at room temperature. Subsequently, plates were washed and incubated with biotinylated anti-rabbit/mouse/human IgG in a 1:1000 dilution buffer and incubated for 1 hour at room temperature. After washing the plates, Streptavidin HRP was added at 1:200 in dilution buffer and incubated for 1 hour at room temperature. Ultra TMB ELISA substrate solution was added and the plates incubated for 5 minutes on a plate shaker. The reaction was stopped by adding stop solution to each well and plates were read at 450 nm.

[3] = molecular target: α11β1 on CHO-K1 cells stably expressing human α11 (CHO-K1 hu α11) (human, UniProt Q9UKX5 23-1188); assay: cell-based or functional assay
Chain of α11β1 on CHO-K1 cells stably expressing human α11 (CHO-K1 hu α11) (Q9UKX5 23-1188): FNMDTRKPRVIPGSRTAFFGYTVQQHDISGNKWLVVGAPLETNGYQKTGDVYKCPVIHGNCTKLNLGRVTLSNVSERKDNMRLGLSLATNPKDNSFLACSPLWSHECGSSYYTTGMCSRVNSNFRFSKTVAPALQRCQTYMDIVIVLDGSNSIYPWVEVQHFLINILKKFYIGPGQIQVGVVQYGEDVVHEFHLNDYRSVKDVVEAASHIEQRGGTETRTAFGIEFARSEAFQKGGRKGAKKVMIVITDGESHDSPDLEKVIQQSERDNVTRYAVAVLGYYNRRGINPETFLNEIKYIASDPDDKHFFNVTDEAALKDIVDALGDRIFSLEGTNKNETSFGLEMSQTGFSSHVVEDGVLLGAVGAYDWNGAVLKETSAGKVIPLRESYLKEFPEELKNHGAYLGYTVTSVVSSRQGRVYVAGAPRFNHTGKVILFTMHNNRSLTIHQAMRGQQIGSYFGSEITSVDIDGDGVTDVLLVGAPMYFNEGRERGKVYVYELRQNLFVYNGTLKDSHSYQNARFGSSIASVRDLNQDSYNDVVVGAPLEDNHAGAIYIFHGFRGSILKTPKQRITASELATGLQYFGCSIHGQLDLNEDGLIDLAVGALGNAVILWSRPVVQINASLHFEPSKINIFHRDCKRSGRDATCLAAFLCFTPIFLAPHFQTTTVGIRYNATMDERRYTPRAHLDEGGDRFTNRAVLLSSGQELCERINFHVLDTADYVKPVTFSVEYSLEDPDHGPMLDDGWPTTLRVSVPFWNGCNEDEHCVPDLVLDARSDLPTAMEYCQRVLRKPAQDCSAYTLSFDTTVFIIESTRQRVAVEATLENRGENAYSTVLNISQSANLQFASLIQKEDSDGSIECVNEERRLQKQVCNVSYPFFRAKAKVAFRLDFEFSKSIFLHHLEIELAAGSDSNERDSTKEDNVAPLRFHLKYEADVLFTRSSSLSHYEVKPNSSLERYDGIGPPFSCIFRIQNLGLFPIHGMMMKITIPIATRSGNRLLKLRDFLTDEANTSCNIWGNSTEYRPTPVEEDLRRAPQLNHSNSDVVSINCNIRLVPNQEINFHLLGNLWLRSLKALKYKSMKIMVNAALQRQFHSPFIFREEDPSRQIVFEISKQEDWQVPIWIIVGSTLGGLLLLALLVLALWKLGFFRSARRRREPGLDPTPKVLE

[4] = molecular target: T2, recombinant human integrin alpha 11 …; assay: SPR (Biacore T200), HIS-tagged human α11β1 captured by anti-HIS antibody, single-cycle kinetics, 1:1 Langmuir fit
Protocol: The affinity of antibodies for human α11β1 was measured by surface plasmon resonance assay (SPR). Affinity was measured at pH 7.6 and 25° C. with a Biacore T200 instrument. Anti-HIS antibody was immobilized on the SPR sensor surface using EDC/NHS covalent attachment. HIS-tagged human α11β1 was captured on the sensor surface and a single-cycle kinetics assay was used. Increasing concentrations of test antibody were injected in series over the sensor-bound α11β1. Dissociation was monitored for 1000 seconds. A sensor surface with only anti-HIS antibody and a series of blank injections were used to double-reference subtract the data. A 1:1 Langmuir model was fit to the data to estimate the kinetic association and dissociation constants. The affinity (equilibrium dissociation constant) of the interaction was calculated by dividing the kinetic dissociation constant by the kinetic association constant. Between injection cycles α11β1 and bound antibody were removed with an injection of 10 mM glycine at pH 1.5.
The binding affinity of antibodies for the α11β1 Headpiece and α11β1 I Domain as measured by SPR is shown in FIG. 10A and FIG. 10B, respectively.

T1 sequence (Q9UKX5 23-1188, chain 1 of 2): as the sequence (Q9UKX5 23-1188) above
T1 sequence (P05556 21-798, chain 2 of 2): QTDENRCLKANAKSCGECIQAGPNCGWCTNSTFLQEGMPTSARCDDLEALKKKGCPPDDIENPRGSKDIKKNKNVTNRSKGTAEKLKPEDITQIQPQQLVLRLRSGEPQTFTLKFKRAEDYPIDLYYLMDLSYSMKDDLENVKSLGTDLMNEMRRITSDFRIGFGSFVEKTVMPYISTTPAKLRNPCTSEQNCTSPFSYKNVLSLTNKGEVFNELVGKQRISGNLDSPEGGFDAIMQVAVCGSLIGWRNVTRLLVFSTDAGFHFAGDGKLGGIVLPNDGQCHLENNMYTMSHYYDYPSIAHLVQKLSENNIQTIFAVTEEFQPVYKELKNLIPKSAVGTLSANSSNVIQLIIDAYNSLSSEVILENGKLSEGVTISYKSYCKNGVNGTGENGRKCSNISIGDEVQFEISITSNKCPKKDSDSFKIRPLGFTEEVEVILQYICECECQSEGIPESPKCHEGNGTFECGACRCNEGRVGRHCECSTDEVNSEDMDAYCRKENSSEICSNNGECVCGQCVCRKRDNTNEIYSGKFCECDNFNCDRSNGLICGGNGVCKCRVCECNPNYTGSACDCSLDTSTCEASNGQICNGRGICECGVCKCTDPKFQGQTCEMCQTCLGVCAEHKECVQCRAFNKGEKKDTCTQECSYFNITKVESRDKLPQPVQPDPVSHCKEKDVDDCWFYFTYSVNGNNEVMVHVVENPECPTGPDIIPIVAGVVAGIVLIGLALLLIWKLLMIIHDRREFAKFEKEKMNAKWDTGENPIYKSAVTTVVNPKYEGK

binding result [1]	binding result [2]	IC50, inhibition of adhesion of CHO-α11 cells to type I collagen, dose curve [3]	koff [4]	kon [4]	Binder
binds	binds	–	–	–	8-J17 (antibody, V domains shown, mouse hybridoma IgG) VH: QVQLQQSGAELAKPGASVKMSCKASGYTFTNYWMHWVKQRPGQGLEWIGYINPNNGYTEYNQRFKDKATLTADRSSTTAYMQLSSLTSEDSAVYYCARSDIITTDYWGQGTTLTVSS VL: DVVMTQTPLSLPVSLGDQASISCRSSQSLVYSNGNTYLHWYLQKPGQSPKLLIYKVSNRFSGVPDRFSGSGSGTDFTLKISRVEAEDLGVYFCSQSTHVPWTFGGGTKLEIK
–	–	0.39 nM	0.000224 s⁻¹	4.68e+06 M⁻¹ s⁻¹	A11B1_16E10 (antibody, V domains shown, rabbit monoclonal, recombinantly produced in HEK cells; full chains) VH: QSLEESGGDLVKPGASLTLTCRVSGFSFSSSYYMCWVRQAPGKGLEWIACIGTTRGSTYYATWAKGRFTISKISSTTVTLQMTSLTDADTATYFCARDATGYRINTIGLYFNLWGPGTLVTVSS VL: AFELTQTPSSVEAAVGGTPTIKCQASQTIYSYLSWYQQKPGQPPKLLIYEASKLASGVPSRFSGSGSGTDYTLTISDLECADAATYYCQSYHGTASTEYNTFGGGTEVVVRG
